Reference: patent US8785600B2, “Anti-GCC antibody molecules and related compositions and methods” (Millennium Pharmaceuticals, Inc., priority 2009, dated 2014)

Legend:
[1] = biological target: T1, mouse GCC (Mus musculus, UniProt Q3UWA6); assay: Cross-reactivity with GCC orthologs (ELISA); type: binding
T1 sequence (Q3UWA6 20-1072): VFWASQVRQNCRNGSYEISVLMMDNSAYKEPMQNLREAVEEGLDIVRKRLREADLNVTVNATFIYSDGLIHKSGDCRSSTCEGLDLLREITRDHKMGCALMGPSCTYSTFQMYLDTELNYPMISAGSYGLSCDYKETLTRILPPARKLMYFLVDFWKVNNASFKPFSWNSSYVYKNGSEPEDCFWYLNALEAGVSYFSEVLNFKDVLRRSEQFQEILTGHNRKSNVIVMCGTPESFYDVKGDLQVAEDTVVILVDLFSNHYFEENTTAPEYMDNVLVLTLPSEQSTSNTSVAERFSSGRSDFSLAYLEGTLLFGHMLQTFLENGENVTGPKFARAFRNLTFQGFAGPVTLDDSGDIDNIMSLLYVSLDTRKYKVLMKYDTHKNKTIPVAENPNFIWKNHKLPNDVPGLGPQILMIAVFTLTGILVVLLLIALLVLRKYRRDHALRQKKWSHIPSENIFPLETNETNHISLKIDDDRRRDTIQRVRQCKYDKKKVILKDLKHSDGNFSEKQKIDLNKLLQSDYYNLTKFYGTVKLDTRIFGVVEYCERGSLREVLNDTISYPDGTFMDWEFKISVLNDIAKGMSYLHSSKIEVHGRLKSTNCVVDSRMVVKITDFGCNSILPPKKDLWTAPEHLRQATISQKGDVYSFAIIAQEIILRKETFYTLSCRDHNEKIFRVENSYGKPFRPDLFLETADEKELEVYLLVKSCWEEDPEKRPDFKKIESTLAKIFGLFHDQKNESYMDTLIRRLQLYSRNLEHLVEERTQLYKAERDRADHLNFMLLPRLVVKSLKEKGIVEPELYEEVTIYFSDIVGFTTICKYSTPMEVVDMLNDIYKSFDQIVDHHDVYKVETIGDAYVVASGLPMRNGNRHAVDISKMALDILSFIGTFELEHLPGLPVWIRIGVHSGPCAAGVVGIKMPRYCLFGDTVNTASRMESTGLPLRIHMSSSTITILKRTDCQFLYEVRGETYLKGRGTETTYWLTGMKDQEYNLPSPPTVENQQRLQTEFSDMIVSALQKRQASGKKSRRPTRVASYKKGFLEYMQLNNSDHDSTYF
Source text: (§1) FIG. 4 depicts ELISA binding assays to test antibody cross-reactivity of GCC orthologs.

[2] = biological target: T2, rat GCC (Rattus norvegicus, UniProt P23897); assay: Cross-reactivity with GCC orthologs (ELISA); type: binding
T2 sequence (P23897 23-1072): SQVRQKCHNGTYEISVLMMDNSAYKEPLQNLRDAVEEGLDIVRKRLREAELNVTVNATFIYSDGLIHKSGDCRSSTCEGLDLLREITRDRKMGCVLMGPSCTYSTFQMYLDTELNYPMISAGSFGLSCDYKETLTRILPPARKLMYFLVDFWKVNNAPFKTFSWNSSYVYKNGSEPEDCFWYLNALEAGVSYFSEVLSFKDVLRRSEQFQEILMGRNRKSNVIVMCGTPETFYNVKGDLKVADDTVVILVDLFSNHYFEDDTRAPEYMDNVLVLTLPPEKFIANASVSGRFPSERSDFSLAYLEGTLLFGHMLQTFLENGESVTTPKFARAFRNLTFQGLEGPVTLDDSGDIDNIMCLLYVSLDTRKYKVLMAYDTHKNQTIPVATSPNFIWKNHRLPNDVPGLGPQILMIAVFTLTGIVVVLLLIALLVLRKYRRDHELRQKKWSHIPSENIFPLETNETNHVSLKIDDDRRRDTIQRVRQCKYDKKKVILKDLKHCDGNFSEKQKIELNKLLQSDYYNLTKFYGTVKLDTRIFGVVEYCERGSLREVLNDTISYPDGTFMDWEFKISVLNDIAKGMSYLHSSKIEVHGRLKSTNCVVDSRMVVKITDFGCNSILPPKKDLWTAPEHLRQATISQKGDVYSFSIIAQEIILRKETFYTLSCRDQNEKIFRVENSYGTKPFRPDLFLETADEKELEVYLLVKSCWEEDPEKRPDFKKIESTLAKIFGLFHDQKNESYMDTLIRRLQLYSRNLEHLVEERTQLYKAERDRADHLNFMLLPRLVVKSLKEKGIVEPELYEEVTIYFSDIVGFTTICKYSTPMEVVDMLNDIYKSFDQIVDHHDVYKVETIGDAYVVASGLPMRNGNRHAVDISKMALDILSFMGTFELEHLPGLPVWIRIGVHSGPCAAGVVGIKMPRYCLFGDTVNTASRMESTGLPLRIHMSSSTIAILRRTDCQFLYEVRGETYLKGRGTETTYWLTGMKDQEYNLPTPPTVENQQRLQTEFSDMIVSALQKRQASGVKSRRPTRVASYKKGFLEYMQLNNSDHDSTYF
Source text: as §1

5F9: Human anti-GCC mAb (IgG2, kappa) of hybridoma 5F9, ATCC PTA-8132; VH SEQ ID NO:18, VL SEQ ID NO:20; also engineered as IgG1
Binding to mouse GCC [1]: does not bind | Binding to rat GCC [2]: does not bind
